Assay results: patent US20180371461, “[…], NUCLEIC ACID MOLECULES, POLYNUCLEOTIDES, […] ANTIBODIES COMPOSITIONS FOR […] PRRS VIRUSES AND […] PRRS VIRUS INFECTION” (AEROVIRUS TECHNOLOGIES INC., published 2018)

Assays:
[1] = system: PRRSV LHVA-93-3 virion, M/GP5 surface complex (Porcine reproductive and respiratory syndrome virus type 2); test: cell_activity; conditions: protection of MARC-145 cells, 500 pmole aptamer, MTT assay; also reduces lung titre in swine
[2] = system: PRRSV NVSL virion, M/GP5 surface complex (Porcine reproductive and respiratory syndrome virus type 2); test: cell_activity; conditions: protection of MARC-145 cells, 500 pmole aptamer, MTT assay
[3] = target: T1, PRRSV type 1 (Lelystad) M-S-S-GP5 disulfide-linked heterodimer peptide complex (Porcine reproductive and respiratory …, UniProt Q04565;Q04569); test: ELONA; type 1 complex; conditions: protein: synthetic
T1 chain 1: MGGLDDFCNDPIAAQ
T1 chain 2: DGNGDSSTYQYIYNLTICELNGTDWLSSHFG

[4] = target: T2, PRRSV type 2 M(1-16)-S-S-GP5(31-61) disulfide-linked heterodimer peptide complex (Porcine reproductive and respiratory …); test: ELONA; streptavidin plate, PBS-T, 37 C; conditions: protein: synthetic, tags: His-labelled (Ni-NTA captured), synthetic glycosylated peptide complex, disulfide M Cys9-GP5 Cys48
T2 chain 1: MGSSLDDFCHDSTAPQ
T2 chain 2: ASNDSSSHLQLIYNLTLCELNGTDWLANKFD

[5] = label: biotin (reverse screening ELISA)

GGGCGACCCTGAAGAGTTTGTAATCTGCGATTTTAAAGTTGAGTCGTCGCGAAACGGTGAAAGCCGTAGGTTGCCC [A505 (CoocSeq5)]
activity [1]: 60% | activity [2]: 70%

B1: PEU-842 (ssDNA)
DNA: GGGCGACCCTGAAGAGGACCAGAAGCACGGACCACACACAGCGTATCGAAACGGTGAAAGCCGTAGGTTGCCC
binding result [3]: binds

B2: PEU-424 (ssDNA)
DNA: GGGCGACCCTGAAGAGGATGTTGATAGAGCGCCGACCACACACGCACGAAACGGTGAAAGCCGTAGGTTGCCC
binding result [3]: binds

B3: PEU-499 (ssDNA)
DNA: GGGCGACCCTGAAGAGTACACACGGGACACACACACACTCACTAGACGAAACGGTGAAAGCCGTAGGTTGCCC
binding result [3]: binds

B4: A507 (CoocSeq7_HistoSeq14) (ssDNA)
DNA: GGGCGACCCTGAAGAGGTTTGCATATTATAGTTATAGGAGGTGTGTAATGGACGAAACGGTGAAAGCCGTAGGTTGCCC
binding result [4, 5]: binds

B5: PEU-962 (ssDNA)
DNA: GGGCGACCCTGAAGAGGATAGACAATAGCACACCACGCCCCTGCCACGAAACGGTGAAAGCCGTAGGTTGCCC
binding result [3]: binds

B6: PEU-852 (ssDNA)
DNA: GGGCGACCCTGAAGAGGACACTGCACGTACACAACGAGGATGAACACGAAACGGTGAAAGCCGTAGGTTGCCC
binding result [3]: binds

B7: A508 (CoocSeq8) (ssDNA)
DNA: GGGCGACCCTGAAGAGACTGGTGAGTTAATGTTTTTTCTTAGCCTTGTATCGAAACGGTGAAAGCCGTAGGTTGCCC
binding result [4, 5]: binds

B8: A505 (CoocSeq5) (ssDNA)
DNA: GGGCGACCCTGAAGAGTTTGTAATCTGCGATTTTAAAGTTGAGTCGTCGCGAAACGGTGAAAGCCGTAGGTTGCCC
binding result ([4]; label: 5' biotin (reverse screening ELISA)): binds
